Laboratory results taken from patent US20230381316A1 (METHODIST HOSPITAL, published 2023).

Assays:
[1] = target: T1, Fluorescence-labeled PSMA protein (biotin-labelled purified PSMA protein with Alexa Fluor 647 Streptavidin) (human, UniProt Q04609 44-750, biotin label (EZ link Sulfo-NHS-Biotin), incubated with Alexa Fluor 647 Streptavidin); assay: flow cytometry of CAR T cells with fluorescence labeled recombinant PSMA protein as probe
T1 construct: This is the purified PSMA protein of m9 after labelling; also called fluorescence labeled recombinant PSMA protein; home-made fluorescent probe
T1 sequence (Q04609 44-750): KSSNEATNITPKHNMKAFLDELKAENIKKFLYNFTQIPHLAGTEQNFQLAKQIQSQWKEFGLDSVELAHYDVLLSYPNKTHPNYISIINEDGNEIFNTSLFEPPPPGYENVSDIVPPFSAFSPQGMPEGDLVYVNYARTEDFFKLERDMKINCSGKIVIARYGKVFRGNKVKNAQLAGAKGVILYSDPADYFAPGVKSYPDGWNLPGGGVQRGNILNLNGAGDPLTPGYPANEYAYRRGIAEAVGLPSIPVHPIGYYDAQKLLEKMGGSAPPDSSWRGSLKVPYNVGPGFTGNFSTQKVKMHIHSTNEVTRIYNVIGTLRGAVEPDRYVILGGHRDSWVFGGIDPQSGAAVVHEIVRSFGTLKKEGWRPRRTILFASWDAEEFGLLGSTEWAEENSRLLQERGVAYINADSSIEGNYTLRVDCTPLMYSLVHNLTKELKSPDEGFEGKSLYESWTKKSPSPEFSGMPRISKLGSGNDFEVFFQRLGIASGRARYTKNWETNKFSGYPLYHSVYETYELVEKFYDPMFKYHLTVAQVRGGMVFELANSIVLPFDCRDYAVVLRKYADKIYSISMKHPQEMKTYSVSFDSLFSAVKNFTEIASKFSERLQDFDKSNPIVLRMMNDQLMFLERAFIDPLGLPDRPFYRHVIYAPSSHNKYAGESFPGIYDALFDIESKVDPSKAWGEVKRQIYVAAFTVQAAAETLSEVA
Excerpt: (A3). In vitro cytotoxicity of PSMA-CAR T cells. Human peripheral blood mononuclear cells (PBMC) were isolated from leukopak following a SOP published by Hanc (HIV/ADIS Network Coordination). T cells including CD4+ and CD8+ T cells were isolated from PBMC with human T cell isolation kit (Miltenyi Biotec). T cells were activated by Dvnabeads human T-Activator CD3/CD28 (ThermoFisher) for 24 hrs, then transduced with lentiviruses expressing PSMA-CARs. Transduced cells were expanded for 8 to 21 days in culture. Flow cytometry was performed to determine the percentage of T cells that express functional CAR. To prepare home-made fluorescent probe, we labeled purified PSMA protein with biotin using EZ link Sulfo-NHS-Biotin (ThermoFisher), then incubated with Alexa Fluor® 647 Streptavidin (BioLegend) to obtain the probe.
For IFNγ induction (FIGS. 14C, 14D)), 4LH-CAR, 7LH-CAR, 5LH-CAR appeared to be the strongest. […] We also tested the in vitro killing on PSMA-positive VCaP cells, PSMA-negative wild type PC3 cells, and PSMA-positive PC3-PSMA stable cells. As anticipated, the PSMA-CAR T cell cytotoxicity IFNγ induction were strictly PSMA-dependent. Moreover, using fluorescence labeled recombinant PSMA protein as probe, flow cytometry analysis was performed on non-transduced and 11 PSMA-CAR T cells.

[2] = target: T2, prostate-specific membrane antigen (PSMA) on PSMA-positive prostate cancer cells (LNCaP, VCaP) (human, UniProt Q04609 1-750); assay: flow cytometry on LNCaP cells
T2 construct: Endogenous PSMA on LNCaP and VCaP cells; also called FOLH1; PSMA antigen on cancer cell surface
T2 sequence (Q04609 whole entry): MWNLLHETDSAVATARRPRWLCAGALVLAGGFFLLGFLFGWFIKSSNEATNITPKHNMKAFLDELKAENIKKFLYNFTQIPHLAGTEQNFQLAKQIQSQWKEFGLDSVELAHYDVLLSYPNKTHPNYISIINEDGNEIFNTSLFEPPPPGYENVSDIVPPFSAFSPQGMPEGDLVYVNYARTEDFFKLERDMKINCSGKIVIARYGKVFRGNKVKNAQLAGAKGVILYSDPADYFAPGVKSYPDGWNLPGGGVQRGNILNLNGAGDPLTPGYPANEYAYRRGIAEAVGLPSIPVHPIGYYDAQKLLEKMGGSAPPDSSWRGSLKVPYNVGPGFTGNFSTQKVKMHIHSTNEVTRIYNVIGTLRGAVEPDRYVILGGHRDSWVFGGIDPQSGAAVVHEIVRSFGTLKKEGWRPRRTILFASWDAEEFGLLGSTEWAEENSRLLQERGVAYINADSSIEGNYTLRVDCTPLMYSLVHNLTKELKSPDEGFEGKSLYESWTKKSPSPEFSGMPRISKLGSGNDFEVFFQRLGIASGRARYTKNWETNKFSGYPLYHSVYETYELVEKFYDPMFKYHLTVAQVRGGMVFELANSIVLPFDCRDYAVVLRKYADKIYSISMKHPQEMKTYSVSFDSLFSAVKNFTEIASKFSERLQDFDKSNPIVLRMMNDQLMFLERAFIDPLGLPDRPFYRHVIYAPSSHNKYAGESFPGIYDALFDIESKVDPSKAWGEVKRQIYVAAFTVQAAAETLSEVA

[3] = target: T2, prostate-specific membrane antigen …; assay: flow cytometry on mixed PC3 and LNCaP cells, 20 µg antibody, FITC anti-mouse IgG
Description: Next, the cells were incubated with FITC anti-mouse IgG secondary antibody (Biolegend, cat #406001), followed by flow cytometric analysis.

B1: PSMA(7LH)-CAR, derived from antibody #1352 (VL-linker-VH) (other)
chain: DIVMTQSHKFMSTSVGDRVNITCKASQDVGTAVAWYQQKPGQSPKFLIYWASTRHTGVPDRFTGSGSGTDFTLTISNVQSEDLADYFCHQYTSYPFTFGSGTKLEMKRGGGGSGGGGSGGGGSVKLQQSGPELEKPGASVKISCKASGYSFTGYNVNWVKQSNGKSLEWIGNIDPYHGGTTYNQKFEAKATLTVDKSSSTAYMQLKSLTSEDSAVYYCARSSRFDYWGQGTTLTVSSTTTPAPRPPTPAPTIASQPLSLRPEACRPAAGGAVHTRGLDFACDIYIWAPLAGTCGVLLLSLVITLYCKRGRKKLLYIFKQPFMRPVQTTQEEDGCSCRFPEEEEGGCELRVKFSRSADAPAYKQGQNQLYNELNLGRREEYDVLDKRRGRDPEMGGKPRRKNPQEGLYNELQKDKMAEAYSEIGMKGERRRGKGHDGLYQGLSTATKDTYDALHMQALPPR
notes: Chimeric antigen receptor on transduced human T cells
percentage of CAR T cells positive for PSMA binding [1]: 35.5%

B2: PSMA(444)-CAR (CAR PMC 444, clone 219, VH-linker-VL) (other)
chain: VQLQQSGPELEKPGASVKMSCKASGYSFTGYNVNWVRQNNGKSLEWIGNIDPLHGGTTYNQKFKAKATLTVDRSSSTAYLQLKNLTSEDSAVYYCARSSRFDYWGQGTTLTVSSGGGGSGGGGSGGGGSDIVMTQSHKFMSTSVGDRVNITCKASQDVGTAVAWYQQKPGQSPKLLIYWASTRHTGVPDRFTGSGSGTDFTLTISNVQSEDLADYFCHQFTSYPFTFGSGTSLEMKRTTTPAPRPPTPAPTIASQPLSLRPEACRPAAGGAVHTRGLDFACDIYIWAPLAGTCGVLLLSLVITLYCKRGRKKLLYIFKQPFMRPVQTTQEEDGCSCRFPEEEEGGCELRVKFSRSADAPAYKQGQNQLYNELNLGRREEYDVLDKRRGRDPEMGGKPRRKNPQEGLYNELQKDKMAEAYSEIGMKGERRRGKGHDGLYQGLSTATKDTYDALHMQALPPR
notes: Chimeric antigen receptor (scFv-CD8a TM-4-1BB-CD3zeta) on transduced human T cells; also called PMC444 CAR
percentage of CAR T cells positive for PSMA binding [1]: 47.1%

B3: PSMA(447)-CAR (CAR PMC 447, clone 1352, VH-linker-VL) (other)
chain: VKLQQSGPELEKPGASVKISCKASGYSFTGYNVNWVKQSNGKSLEWIGNIDPYHGGTTYNQKFEAKATLTVDKSSSTAYMQLKSLTSEDSAVYYCARSSRFDYWGQGTTLTVSSGGGGSGGGGSGGGGSDIVMTQSHKFMSTSVGDRVNITCKASQDVGTAVAWYQQKPGQSPKFLIYWASTRHTGVPDRFTGSGSGTDFTLTISNVQSEDLADYFCHQYTSYPFTFGSGTKLEMKRTTTPAPRPPTPAPTIASQPLSLRPEACRPAAGGAVHTRGLDFACDIYIWAPLAGTCGVLLLSLVITLYCKRGRKKLLYIFKQPFMRPVQTTQEEDGCSCRFPEEEEGGCELRVKFSRSADAPAYKQGQNQLYNELNLGRREEYDVLDKRRGRDPEMGGKPRRKNPQEGLYNELQKDKMAEAYSEIGMKGERRRGKGHDGLYQGLSTATKDTYDALHMQALPPR
notes: Chimeric antigen receptor on transduced human T cells; also called PMC447 CAR
percentage of CAR T cells positive for PSMA binding [1]: 3.08%

B4: PSMA(446)-CAR (CAR PMC 446, clone 1366, VH-linker-VL) (other)
chain: VKLQESGPGLVAPSQSLSITCTVSGFSLTDYGVSWIRQPPGKGLEWLGVIWSDGNTYYNSPLKSRLSINKDNSKSQVFLKMNSLQTDDSAMYYCARHKVYTMDYWGQGTSVTVSSGGGGSGGGGSGGGGSTVLTQSPAIMSASPGEKVTMTCRASSSVSSSYLHWYQQKSSASPKLWIYRTSNLASGVPARFSGSGSGTSYSLTISSLEAEDAATYYCQQYSGYPLTFGAGTKLELKRTTTPAPRPPTPAPTIASQPLSLRPEACRPAAGGAVHTRGLDFACDIYIWAPLAGTCGVLLLSLVITLYCKRGRKKLLYIFKQPFMRPVQTTQEEDGCSCRFPEEEEGGCELRVKFSRSADAPAYKQGQNQLYNELNLGRREEYDVLDKRRGRDPEMGGKPRRKNPQEGLYNELQKDKMAEAYSEIGMKGERRRGKGHDGLYQGLSTATKDTYDALHMQALPPR
notes: Chimeric antigen receptor on transduced human T cells; also called PMC446 CAR
percentage of CAR T cells positive for PSMA binding [1]: 19.6%

B5: anti-PSMA mouse monoclonal antibody #1207 (antibody, V domains shown)
VH: VKLQQSGPGLVKPSQSLSLTCAVTGYSITSDYAWNWIRKFPGNKLEWMGYISYSGRTTYNPSLESRISITRDTSKNQFFLQLNSVTTEDTATYYCARCYYGSSSRWYGMDYWGRGTSVAVSS
VL: IVLTQSPAIMSASPGVKVTMTCRASSSVDSSYLHWYQQKSGASPQVWIYSTSNLASGVPARFSGSGSGTSYSLTISSVEAEDAATYYCQQYSGYPLTFGGGTKLEIKR
notes: Full-length mouse IgG from a hybridoma
binding result [2]: binds

B6: anti-PSMA mouse monoclonal antibody #1366 (antibody, V domains shown)
VH: VKLQESGPGLVAPSQSLSITCTVSGFSLTDYGVSWIRQPPGKGLEWLGVIWSDGNTYYNSPLKSRLSINKDNSKSQVFLKMNSLQTDDSAMYYCARHKVYTMDYWGQGTSVTVSS
VL: TVLTQSPAIMSASPGEKVTMTCRASSSVSSSYLHWYQQKSSASPKLWIYRTSNLASGVPARFSGSGSGTSYSLTISSLEAEDAATYYCQQYSGYPLTFGAGTKLELKR
notes: as for B5
binding result [2]: binds

B7: anti-PSMA mouse monoclonal antibody #219 (antibody, V domains shown)
VH: VQLQQSGPELEKPGASVKMSCKASGYSFTGYNVNWVRQNNGKSLEWIGNIDPLHGGTTYNQKFKAKATLTVDRSSSTAYLQLKNLTSEDSAVYYCARSSRFDYWGQGTTLTVSS
VL: DIVMTQSHKFMSTSVGDRVNITCKASQDVGTAVAWYQQKPGQSPKLLIYWASTRHTGVPDRFTGSGSGTDFTLTISNVQSEDLADYFCHQFTSYPFTFGSGTSLEMKR
notes: as for B5
binding result [2]: binds

B8: anti-PSMA mouse monoclonal antibody #1352 (antibody, IgG2b, V domains shown)
VH: VKLQQSGPELEKPGASVKISCKASGYSFTGYNVNWVKQSNGKSLEWIGNIDPYHGGTTYNQKFEAKATLTVDKSSSTAYMQLKSLTSEDSAVYYCARSSRFDYWGQGTTLTVSS
VL: DIVMTQSHKFMSTSVGDRVNITCKASQDVGTAVAWYQQKPGQSPKFLIYWASTRHTGVPDRFTGSGSGTDFTLTISNVQSEDLADYFCHQYTSYPFTFGSGTKLEMKR
binding result [3]: binds

B9: anti-PSMA mouse monoclonal antibody #1377 (antibody, V domains shown)
VH: VQLQQPGAALVRPGASVRLSCKASGYSFTYYWMNWVMQRPGQGLEWIGMIHPSDSETRLSQKFRDKATLTVDKSSSTVYMQLNSPTSDDSAVYYCARDGNFPYYALDYWGQGTSVTVSS
VL: DVVLTQAPLSLPVSLGDQASISCRSSQSLEYSNGNTYLHWYLQKPGQSPELLIYTVSNRFSGVPDRFSGSGSGTDFTLKIHRVEAEDLGVYFCSQSTHVPTFGGGTKLEIKR
notes: as for B5
binding result [2]: binds

B10: PSMA(448)-CAR (CAR PMC 448, clone 1207, VH-linker-VL) (other)
chain: VKLQQSGPGLVKPSQSLSLTCAVTGYSITSDYAWNWIRKFPGNKLEWMGYISYSGRTTYNPSLESRISITRDTSKNQFFLQLNSVTTEDTATYYCARCYYGSSSRWYGMDYWGRGTSVAVSSGGGGSGGGGSGGGGSIVLTQSPAIMSASPGVKVTMTCRASSSVDSSYLHWYQQKSGASPQVWIYSTSNLASGVPARFSGSGSGTSYSLTISSVEAEDAATYYCQQYSGYPLTFGGGTKLEIKRTTTPAPRPPTPAPTIASQPLSLRPEACRPAAGGAVHTRGLDFACDIYIWAPLAGTCGVLLLSLVITLYCKRGRKKLLYIFKQPFMRPVQTTQEEDGCSCRFPEEEEGGCELRVKFSRSADAPAYKQGQNQLYNELNLGRREEYDVLDKRRGRDPEMGGKPRRKNPQEGLYNELQKDKMAEAYSEIGMKGERRRGKGHDGLYQGLSTATKDTYDALHMQALPPR
notes: Chimeric antigen receptor on transduced human T cells; also called PMC448 CAR
percentage of CAR T cells positive for PSMA binding [1]: 2.23%

B11: PSMA(8LH)-CAR, derived from antibody #1207 (VL-linker-VH) (other)
chain: IVLTQSPAIMSASPGVKVTMTCRASSSVDSSYLHWYQQKSGASPQVWIYSTSNLASGVPARFSGSGSGTSYSLTISSVEAEDAATYYCQQYSGYPLTFGGGTKLEIKRGGGGSGGGGSGGGGSVKLQQSGPGLVKPSQSLSLTCAVTGYSITSDYAWNWIRKFPGNKLEWMGYISYSGRTTYNPSLESRISITRDTSKNQFFLQLNSVTTEDTATYYCARCYYGSSSRWYGMDYWGRGTSVAVSSTTTPAPRPPTPAPTIASQPLSLRPEACRPAAGGAVHTRGLDFACDIYIWAPLAGTCGVLLLSLVITLYCKRGRKKLLYIFKQPFMRPVQTTQEEDGCSCRFPEEEEGGCELRVKFSRSADAPAYKQGQNQLYNELNLGRREEYDVLDKRRGRDPEMGGKPRRKNPQEGLYNELQKDKMAEAYSEIGMKGERRRGKGHDGLYQGLSTATKDTYDALHMQALPPR
notes: as for B1
percentage of CAR T cells positive for PSMA binding [1]: 16%

B12: PSMA(6LH)-CAR, derived from antibody #1366 (VL-linker-VH) (other)
chain: TVLTQSPAIMSASPGEKVTMTCRASSSVSSSYLHWYQQKSSASPKLWIYRTSNLASGVPARFSGSGSGTSYSLTISSLEAEDAATYYCQQYSGYPLTFGAGTKLELKRGGGGSGGGGSGGGGSVKLQESGPGLVAPSQSLSITCTVSGFSLTDYGVSWIRQPPGKGLEWLGVIWSDGNTYYNSPLKSRLSINKDNSKSQVFLKMNSLQTDDSAMYYCARHKVYTMDYWGQGTSVTVSSTTTPAPRPPTPAPTIASQPLSLRPEACRPAAGGAVHTRGLDFACDIYIWAPLAGTCGVLLLSLVITLYCKRGRKKLLYIFKQPFMRPVQTTQEEDGCSCRFPEEEEGGCELRVKFSRSADAPAYKQGQNQLYNELNLGRREEYDVLDKRRGRDPEMGGKPRRKNPQEGLYNELQKDKMAEAYSEIGMKGERRRGKGHDGLYQGLSTATKDTYDALHMQALPPR
notes: as for B1
percentage of CAR T cells positive for PSMA binding [1]: 17.8%
